Measured values from article PMC9482650, “Quantitative fragmentomics allow affinity mapping of interactomes” (Nature Communications, 2022).

Assays:
Assay in all cases: holdup assay
Parameters in all cases: key: below the threshold = too weak to quantify, mostly under pKd 3.1 to 4
NHERF3_1, Q5T2W1 = molecular target: T1, NHERF3_1, Q5T2W1
T1 sequence (Q5T2W1 4-100, limits assumed, looked up): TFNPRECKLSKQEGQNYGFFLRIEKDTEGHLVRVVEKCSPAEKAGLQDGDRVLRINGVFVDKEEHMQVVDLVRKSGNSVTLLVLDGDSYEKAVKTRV

NOS1, P29475 = molecular target: NOS1, P29475
MAGI2_6, Q86UL8 = molecular target: MAGI2_6, Q86UL8
MPDZ_5, O75970 = molecular target: T2, MPDZ_5, O75970
T2 sequence (O75970 695-796, limits assumed, looked up): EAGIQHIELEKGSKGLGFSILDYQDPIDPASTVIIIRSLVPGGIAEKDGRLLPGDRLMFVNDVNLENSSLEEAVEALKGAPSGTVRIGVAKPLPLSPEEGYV

FRMPD1, Q5SYB0 = molecular target: T3, FRMPD1, Q5SYB0
T3 sequence (Q5SYB0 52-145, limits assumed, looked up): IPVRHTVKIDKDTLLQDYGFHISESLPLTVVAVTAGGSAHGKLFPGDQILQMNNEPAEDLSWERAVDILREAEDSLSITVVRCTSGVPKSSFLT

LIN7A, O14910 = molecular target: T4, LIN7A, O14910
T4 sequence (O14910 103-200, limits assumed, looked up): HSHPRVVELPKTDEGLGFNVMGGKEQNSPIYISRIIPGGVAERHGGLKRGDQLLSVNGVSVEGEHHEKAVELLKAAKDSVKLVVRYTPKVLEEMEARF

PDLIM1, O00151 = molecular target: PDLIM1, O00151
MPDZ_12, O75970 = molecular target: T5, MPDZ_12, O75970
T5 sequence (O75970 1857-1958, limits assumed, looked up): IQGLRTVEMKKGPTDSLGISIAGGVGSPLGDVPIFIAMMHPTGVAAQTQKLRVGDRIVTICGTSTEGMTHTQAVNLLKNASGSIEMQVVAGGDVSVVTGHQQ

APBA2_1, Q99767 = molecular target: T6, APBA2_1, Q99767
T6 sequence (Q99767 563-664, limits assumed, looked up): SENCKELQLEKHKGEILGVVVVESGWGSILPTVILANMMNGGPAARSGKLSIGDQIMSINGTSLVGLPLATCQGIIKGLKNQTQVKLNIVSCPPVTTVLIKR

GRID2IP_1, A4D2P6 = molecular target: GRID2IP_1, A4D2P6
GRIP1_7, Q9Y3R0 = molecular target: T7, GRIP1_7, Q9Y3R0
T7 sequence (Q9Y3R0 999-1096, limits assumed, looked up): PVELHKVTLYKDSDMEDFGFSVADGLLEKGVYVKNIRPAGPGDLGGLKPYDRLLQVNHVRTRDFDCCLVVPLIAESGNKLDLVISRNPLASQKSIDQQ

PARD3B_1, Q8TEW8 = molecular target: T8, PARD3B_1, Q8TEW8
T8 sequence (Q8TEW8 196-299, limits assumed, looked up): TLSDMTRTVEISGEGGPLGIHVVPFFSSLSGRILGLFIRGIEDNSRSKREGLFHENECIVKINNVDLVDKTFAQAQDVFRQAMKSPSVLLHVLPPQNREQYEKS

MAGI2_3, Q86UL8 = molecular target: MAGI2_3, Q86UL8
Inadl_3, Q8NI35 = molecular target: Inadl_3, Q8NI35
LDB3, O75112 = molecular target: LDB3, O75112
PDZRN3_1, Q9UPQ7 = molecular target: T9, PDZRN3_1, Q9UPQ7
T9 sequence (Q9UPQ7 244-349, limits assumed, looked up): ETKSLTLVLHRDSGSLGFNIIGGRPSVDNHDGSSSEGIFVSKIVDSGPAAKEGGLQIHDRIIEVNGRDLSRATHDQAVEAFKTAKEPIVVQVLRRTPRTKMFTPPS

CARD11, Q9BXL7 = molecular target: T10, CARD11, Q9BXL7
T10 sequence (Q9BXL7 662-765, limits assumed, looked up): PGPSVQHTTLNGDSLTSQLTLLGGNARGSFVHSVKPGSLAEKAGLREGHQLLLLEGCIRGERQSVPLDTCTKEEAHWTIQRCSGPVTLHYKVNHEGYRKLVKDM

PARD3_3, Q8TEW0 = molecular target: PARD3_3, Q8TEW0
DLG4_1, P78352 = molecular target: DLG4_1, P78352
APBA3_1, O96018 = molecular target: T11, APBA3_1, O96018
T11 sequence (O96018 389-490, limits assumed, looked up): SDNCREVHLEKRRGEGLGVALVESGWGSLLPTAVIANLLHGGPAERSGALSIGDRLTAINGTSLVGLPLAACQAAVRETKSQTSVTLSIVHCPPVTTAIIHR

IL16_4, Q14005 = molecular target: IL16_4, Q14005
GRIP1_5, Q9Y3R0 = molecular target: T12, GRIP1_5, Q9Y3R0
T12 sequence (Q9Y3R0 568-668, limits assumed, looked up): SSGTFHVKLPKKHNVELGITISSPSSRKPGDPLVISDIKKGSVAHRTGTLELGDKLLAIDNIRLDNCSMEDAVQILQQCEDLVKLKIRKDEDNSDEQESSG

FRMPD4, Q14CM0 = molecular target: FRMPD4, Q14CM0
DLG3_1, Q92796 = molecular target: T13, DLG3_1, Q92796
T13 sequence (Q92796 125-227, limits assumed, looked up): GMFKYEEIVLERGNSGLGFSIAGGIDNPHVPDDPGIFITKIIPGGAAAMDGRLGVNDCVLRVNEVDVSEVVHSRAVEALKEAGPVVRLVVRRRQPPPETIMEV

[1] = plain residues with an end cap or a label only (N-terminal biotin on a linker: ttds)
[2] = plain residues with an end cap or a label only (N-terminal biotin on a linker: ahx)

Sequence of FRMPD4, Q14CM0 (Q14CM0 67-160): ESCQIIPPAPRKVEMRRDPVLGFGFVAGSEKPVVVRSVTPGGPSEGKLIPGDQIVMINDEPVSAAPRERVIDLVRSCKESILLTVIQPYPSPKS
Sequence of LDB3, O75112 (O75112 1-94): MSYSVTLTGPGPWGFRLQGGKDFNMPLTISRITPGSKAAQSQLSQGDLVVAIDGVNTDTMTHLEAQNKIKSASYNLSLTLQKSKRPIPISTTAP
Sequence of PARD3_3, Q8TEW0 (Q8TEW0 582-685): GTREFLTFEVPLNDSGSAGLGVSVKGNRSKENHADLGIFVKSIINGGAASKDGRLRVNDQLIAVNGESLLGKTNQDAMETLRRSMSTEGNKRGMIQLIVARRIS
Sequence of DLG4_1, P78352 (P78352 62-152): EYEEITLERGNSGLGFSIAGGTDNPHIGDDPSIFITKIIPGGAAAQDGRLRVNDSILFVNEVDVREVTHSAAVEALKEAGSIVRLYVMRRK
Sequence of MAGI2_6, Q86UL8 (Q86UL8 1141-1229): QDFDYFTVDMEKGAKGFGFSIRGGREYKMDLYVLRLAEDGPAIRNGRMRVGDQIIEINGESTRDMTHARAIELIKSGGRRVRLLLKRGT
Sequence of NOS1, P29475 (P29475 9-101): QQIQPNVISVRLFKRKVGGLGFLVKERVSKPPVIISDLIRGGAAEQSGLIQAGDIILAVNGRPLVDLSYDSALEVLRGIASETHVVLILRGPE
Sequence of Inadl_3, Q8NI35 (Q8NI35 359-469): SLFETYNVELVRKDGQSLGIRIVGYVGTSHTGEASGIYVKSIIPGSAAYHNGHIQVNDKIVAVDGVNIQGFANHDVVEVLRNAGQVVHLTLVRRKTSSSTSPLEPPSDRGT
Sequence of PDLIM1, O00151 (O00151 1-87): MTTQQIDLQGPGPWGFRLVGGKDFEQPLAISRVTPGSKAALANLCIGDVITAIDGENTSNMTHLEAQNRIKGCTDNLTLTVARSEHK
Sequence of MAGI2_3, Q86UL8 (Q86UL8 600-682): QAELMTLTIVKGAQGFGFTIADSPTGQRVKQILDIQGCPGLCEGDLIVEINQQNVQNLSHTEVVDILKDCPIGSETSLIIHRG
Sequence of GRID2IP_1, A4D2P6 (A4D2P6 1-87): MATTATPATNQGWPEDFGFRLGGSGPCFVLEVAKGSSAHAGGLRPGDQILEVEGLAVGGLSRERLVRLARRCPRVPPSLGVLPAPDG
Sequence of IL16_4, Q14005 (Q14005 1229-1329): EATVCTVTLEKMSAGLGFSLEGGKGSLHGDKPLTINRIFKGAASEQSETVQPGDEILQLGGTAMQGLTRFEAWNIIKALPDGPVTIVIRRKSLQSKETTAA

## CLDTSRETDL [KCNA5, P22460]
NHERF3_1, Q5T2W1; [1]
  pKd: 4.43
NOS1, P29475; [1]
  pKd: below the threshold
MAGI2_6, Q86UL8; [1]
  pKd: 4.95
MPDZ_5, O75970; [1]
  pKd: below the threshold
FRMPD1, Q5SYB0; [1]
  pKd: below the threshold
LIN7A, O14910; [1]
  pKd: below the threshold
PDLIM1, O00151; [1]
  pKd: 4.29
MPDZ_12, O75970; [1]
  pKd: below the threshold
APBA2_1, Q99767; [1]
  pKd: below the threshold
GRID2IP_1, A4D2P6; [1]
  pKd: below the threshold
GRIP1_7, Q9Y3R0; [1]
  pKd: below the threshold
PARD3B_1, Q8TEW8; [1]
  pKd: below the threshold
MAGI2_3, Q86UL8; [1]
  pKd: below the threshold
Inadl_3, Q8NI35; [1]
  pKd: below the threshold
LDB3, O75112; [1]
  pKd: below the threshold
PDZRN3_1, Q9UPQ7; [1]
  pKd: 4.38
CARD11, Q9BXL7; [1]
  pKd: below the threshold
PARD3_3, Q8TEW0; [1]
  pKd: 3.48
DLG4_1, P78352; [1]
  pKd: 3.84
APBA3_1, O96018; [1]
  pKd: below the threshold
IL16_4, Q14005; [1]
  pKd: below the threshold
GRIP1_5, Q9Y3R0; [1]
  pKd: below the threshold
FRMPD4, Q14CM0; [1]
  pKd: 3.49
DLG3_1, Q92796; [1]
  pKd: 3.49

## EDEDEQVSAV [RAPGEF2, Q9Y4G8]
NHERF3_1, Q5T2W1; [2]
  pKd: below the threshold
NOS1, P29475; [2]
  pKd: 3.67
MAGI2_6, Q86UL8; [2]
  pKd: 4.57
MPDZ_5, O75970; [2]
  pKd: below the threshold
FRMPD1, Q5SYB0; [2]
  pKd: below the threshold
LIN7A, O14910; [2]
  pKd: below the threshold
PDLIM1, O00151; [2]
  pKd: below the threshold
MPDZ_12, O75970; [2]
  pKd: below the threshold
APBA2_1, Q99767; [2]
  pKd: below the threshold
GRID2IP_1, A4D2P6; [2]
  pKd: below the threshold
GRIP1_7, Q9Y3R0; [2]
  pKd: below the threshold
PARD3B_1, Q8TEW8; [2]
  pKd: below the threshold
MAGI2_3, Q86UL8; [2]
  pKd: 4.23
Inadl_3, Q8NI35; [2]
  pKd: below the threshold
LDB3, O75112; [2]
  pKd: below the threshold
PDZRN3_1, Q9UPQ7; [2]
  pKd: below the threshold
CARD11, Q9BXL7; [2]
  pKd: below the threshold
PARD3_3, Q8TEW0; [2]
  pKd: 3.91
DLG4_1, P78352; [2]
  pKd: 3.59
APBA3_1, O96018; [2]
  pKd: below the threshold
IL16_4, Q14005; [2]
  pKd: below the threshold
GRIP1_5, Q9Y3R0; [2]
  pKd: below the threshold
FRMPD4, Q14CM0; [2]
  pKd: below the threshold
DLG3_1, Q92796; [2]
  pKd: below the threshold

## KKNKDKEYYV [NRXN1, Q9ULB1]
NHERF3_1, Q5T2W1; [2]
  pKd: 3.84
NOS1, P29475; [2]
  pKd: 3.57
MAGI2_6, Q86UL8; [2]
  pKd: below the threshold
MPDZ_5, O75970; [2]
  pKd: 3.85
FRMPD1, Q5SYB0; [2]
  pKd: below the threshold
LIN7A, O14910; [2]
  pKd: below the threshold
PDLIM1, O00151; [2]
  pKd: below the threshold
MPDZ_12, O75970; [2]
  pKd: below the threshold
APBA2_1, Q99767; [2]
  pKd: below the threshold
GRID2IP_1, A4D2P6; [2]
  pKd: below the threshold
GRIP1_7, Q9Y3R0; [2]
  pKd: 4.09
PARD3B_1, Q8TEW8; [2]
  pKd: below the threshold
MAGI2_3, Q86UL8; [2]
  pKd: below the threshold
Inadl_3, Q8NI35; [2]
  pKd: below the threshold
LDB3, O75112; [2]
  pKd: below the threshold
PDZRN3_1, Q9UPQ7; [2]
  pKd: below the threshold
CARD11, Q9BXL7; [2]
  pKd: below the threshold
PARD3_3, Q8TEW0; [2]
  pKd: 4.29
DLG4_1, P78352; [2]
  pKd: below the threshold
APBA3_1, O96018; [2]
  pKd: below the threshold
IL16_4, Q14005; [2]
  pKd: below the threshold
GRIP1_5, Q9Y3R0; [2]
  pKd: below the threshold
FRMPD4, Q14CM0; [2]
  pKd: 3.58
DLG3_1, Q92796; [2]
  pKd: below the threshold
